Experimental data as given in the DeepSol protein solubility set.

assay: soluble on expression in E. coli; label from the status in PepcDB or PDB records

| Sequence | soluble on expression in E. coli |
| --- | --- |
| MMLSTEGREGFVVKVRGLPWSCSADEVMRFFSDCKIQNGTSGIRFIYTREGRPSGEAFVELESEEEVKLALKKDRETMGHRYVEVFKSNSVEMDWVLKHTGPNSPDTANDGFVRLRGLPFGCSKEEIVQFFSGLEIVPNGMTLPVDFQGRSTGEAFVQFASQEIAEKALKKHKERIGHRYIEIFKSSRAEVRTHYDPPRKLMAMQRPGPYDRPGAGRGYNSIGRGAGFERMRRGAYGGGYGGYDDYGGYNDGYGFGSDRFGRDLNYCFSGMSDHRYGDGGSSFQSTTGHCVHMRGLPYRATENDIYNFFSPLNPMRVHIEIGPDGRVTGEADVEFATHEDAVAAMAKDKANMQHRYVELFLNSTAGTSGGAYDHSYVELFLNSTAGASGGAYGSQMMGGMGLSNQSSYGGPASQQLSGGYGGGYGGQSSMSGYDQVLQENSSDYQSNLA | soluble |
| MGSDKIHHHHHHMVKCIEEYVQVDDFKMYSKVFQGKKLQPVIIMEAGYGDYSKTWDHIAEELTEFGTVLTYDRAGLGKSGNSSKRRISSEMIKDLRSCLEKLQLKPPYIFVGHSFGGINARLFATFYSEDMLGIVLVDSTPENYKKDFLLIMSPEFQEAYYKQFVHESSYKEFMFSLGEADKHCQSMRNIPLVVLAAGKKAYYSQEAQMKWLQLQEELLRLSNNHKFIIAEQSGHYIQKDEPHYIIDAVKWIIEVGEG | not soluble |
| AIANCCIGLGEKARGSHRASYPSLSALFTEASILGFGSFAVKAQWTEDCRKSTYPPSGPTVFPAVIRYRGAVPWYTINLDLPPYKRWHELMLDKAPVPGLLGNFPGPFEEEMKGIAAVTDIPLGEIISFNIFYELFTVCTSIVAEDKKGHLIHGRNMDFGVFLGWNINNDTWVITEQLKPLTVNLDFQRNNKTVFKASSFAGYVGMLTGFKPGLFSLTLNERFSINGGYLGILEWILGKKDAMWIGFLTRTVLENSTSYEEAKNLLTKTKILAPAYFILGGNQSGEGCVITRDRKESLDVYELDAKQGRWYVVQTNYDRWKHPFFLDDRRTPAKMCLNRTSQENISFETMYDVLSTKPVLNKLTVYTTLIDVTKGQFETYLRDCPDPCIGW | soluble |
| MGSDKIHHHHHHMKRTTKSIQAEIAKGAFRPHTALSTMALAYYQQETTSFAKNMFPVCPVQLSSDNYYVFDKEDLLRDNWNRKPAYGSVDPAVISEHTENYACHVDQMMMGIDNIRQTDLNRRQGPHTKDPRQQRTKVIATQANIHQDAEFSKSFMRKGVWKNEATGTDSVSVTSGQFIKFSNGNSDPIAFFQNKMTEINEETGRTPNRLGLGVNVYNALKEHPAILERVKYGGSTPNPAKVNLNVLAQLFEIDRIVLDRTVQNKAGLGQNADMGYIGDPNSFLLAYATDTPSVEEPSAGYIFTWDMLENGILLPILNYPGAPGTHSELVEGLMAYDMKKTADDLAFFGCDAV | not soluble |
| MGSDKIHHHHHHMTTNSLLIIDFEFTMPDGKYSPQNFFPEIIEAGIVKSIDDEVVETFSSYVRPKKFPKLTKRCKSFLKITQKQVDEGMRFEDFIRKLNELDPEKNSTIITWGNMDMKVLKQNCMFNHIPFPFKGEMRDLSLEYKNFFGDRTLTGLWKAAEEYGDSGTGTHHKALDDALTAYKLFKLVEQDKQYLEKPKPPTIGERIDLTELLKRAT | not soluble |
| MPDPQISAIICTHNRDTYLGAAIDSLLVQDFAGEFEVVVIDNGSSDRTREVVEQRSSDSRLKYVFEPTIGLSVARNTGAKFASAEILAYLDDDAVASTHWLQVLYAAYQNYPQLAIAGGKVTLLWPPDTQPPRWLSSGLAGNLGAYDLGDKVVYIQQPGLTPRGLNYSIRRTFLEEIGGFDPHLGRVGKNLLSNEELQMTELALTGGWQVAYLPEALVAHNVAPERLNRSWFLNRGWWQGISECYREQLSGKAGVGQLSRGGERLARGLYKAFRYFSNPAERFDNLVYAYGQIGYLNAVLQGLLFTANNKGSQLEHHHHHH | soluble |
| MPALSHGLSRFRGEAKPPGPSPRRSRESMAMDSKASMFTHGARPARIALFSGNYNYTLDGANKSLNRLVDHVQRTTGAQVRIYSPTSPTPAFAPVGELVSVPSVTIPFRRDYRLALGLPAAVRRDVEAFAPDLIHLSAPDLLGAAALKLGRRLKTPVVASLHTLFDSYLDYYGLGGLRALARRRLWQFYGACDFVMTPTPAIGEELRAQNLGVQVRTWARGVDADLFNPARRSADWRAAQGFDPDRPVIVFLGRLVMEKGLAAFADTIDRLAASGPSPQVLIIGDGPARAWFQERLPMATFAGFLTGEALATALASADIFLNPSTTETFGNVNLEAMASGLAIVCADAPNTRALLRDGRDAILCAPSDPASYAQALLSLCQDQNRLRRMGAKALDRSAAYRWTEILDEVVDIYAEALDARASAPSRAEVSPHELRARTGRRAGLIDAQAAALSTPLEHHHHHH | soluble |
| MAELIHSTIGRLLEQTADAYPDRDAVVYPDRNIRYTYAQFDSLCRQTAKGLMRMGIGKGDHVAIWASNISEWLAVQFATAKIGAVLVTVNTNYQAHELDYLLKQSDAAALIIMDSYRGTSYPDIVNSLIPELQEAKPGQLKSERYPFLKTLIYIGNKRLSGMYHWDDTEILAKTVTDAELEERMNSLDKDNVINMQYTSGTTGFPKGVMLTHFNVINNAANIAECMALTSQDRMCIPVPFFHCFGCVLGVLACVSVGAAMIPVQEFDPVTVLKTVEKEKCTVLHGVPTMFIAELHHPDFDAYDLSTLRTGIMAGSPCPSEVMKAVIERMGMKDITIAYGQTEASPVITQTRANDSFIRRVETTGRALPHTEVKIVEPGTCQEVQRGMQGELCTRGYHVMKGYYKDKDATRKAINHDGWLFTGDLAVMDEDGYCRITGRLKDMLIRGGENIYPREIEEFLYQHPAVLDVQVVGVPDAKFGEEAAAWIKLKDGKSVSPDELKAYCKGKIARHKIPRYVIFTDDYPMTASGKIQKY | not soluble |
| MMRRGLLLLNLGTPNNADIRAVKLYLREFLTDKRVIDLPTIPRYILVYCLILPFRSPKSAQAYQSIWTEKGSPLLYHSQNLVTKLQSALKDEYKIALGMRYGTPSITTALAELKDCHSLTILPLFPQYSSAATGSAIEKTLSHLANQEIIPSIKIIRDFYQRPEYIQAQAKIMKPYIKDNFHLLFSYHGIPERHIHKSGCDTLCPQTCTPIYDKNQACYRAQCYQTSLLLAKELQLGTHQYTTAFQSRLGKTPWIKPYTDEIFAELISKGIKNIVVSCPSFVADCLETLEEIGIRAKEQWEKLGGEQFILTPCMNDHPEWIKAIQSIVNEQF | not soluble |
| KAFLEDMKKYAETFLEPWFKAPNKGTFQIVYKSRNNSHVNREEVIRELAGIVCTLNSENKVDLTNPQYTVVVEIIKAVCCLSVVK | soluble |
| AHHHHHHGSFPHEEKLIREKLGREPNDLEKAMLEVMWSEHVSYKSSRKWLKLLPTKNEHVILGPGEDAGIIKFDDKTWIVIGIESHNHPSAVEPYGGAATGVGGIVRDILCMGARPIALLDPIRFGPLEKEKNRYLFEYVVKGIADYGNRIGVPTVGGETEFDESLDNYTLVNVACIGIMRPEHLVHSYVTEPGLKLVIVGNRTGRDGIHGVTFASEELGENAEEEDRSAVQIPDPFTEKLLIEATLEAVYTGKVKALKDLGGGGLTCAASEMVGKRGFGAIIYADKVPLREPGMTPLEVMISESQERMLFAIKPEDVEELGKIFEKYELEWSVVGEVIEEPKFIVYWKGRKVAELPIELLTNVPTIEWPMKEYRIEEDVETPQISLEEAFEKVWRSPNVISKRWVWEQYDHEVQGRTVIKPGFDSAVLKINEEYGLAITADGNPTHCYLNPYHGAMGVVVEVVRNLVSVGAKPLALVDNLNFASPERPEVYWSFVETIKGLADAAKAFGLAYVSGNVSFYNEVVNKPVKPTPVVAGVGKVKLEKIPRGPREGDLIGLIGETRKELGGSELYRVLGVSKGIAPRVDLEVEKRNAESVLKLIEEGLVSFVHDVSRGGVAVALAELSTWFNVGIKSEITTSLLPLDFAFSESHGRYIVTFPEENLEAVKKIAPITLLGRIGGEKFELKINGEKVSKTVKWLSDVHWNELYRIMD | not soluble |
| AELLLGVNIDHIATLRNARGTAYPDPVQAAFIAEQAGADGITVHLREDRRHITDRDVRILRQTLDTRMNLEMAVTEEMLAIAVETKPHFCCLVPEKRQEVTTEGGLDVAGQRDKMRDACKRLADAGIQVSLFIDADEEQIKAAAEVGAPFIEIHTGCYADAKTDAEQAQELARIAKAATFAASLGLKVNAGHGLTYHNVKAIAAIPEMHELNIGHAIIGRAVMTGLKDAVAEMKRLMLEARG | soluble |
| MAVSLPTKYPLRPITNIPKSHRPSLLRVRVTCSVTTTKPQPNREKLLVEQRTVNLPLSNDQSLQSTKPRPNREKLVVEQRLASPPLSNDPTLKSTWTHRLWVAAGCTTLFVSLAKSVIGGFDSHLCLEPALAGYAGYILADLGSGVYHWAIDNYGDESTPVVGTQIEAFQGHHKWPWTITRRQFANNLHALAQVITFTVLPLDLAFNDPVFHGFVCTFAFCILFSQQFHAWAHGTKSKLPPLVVALQDMGLLVSRRQHAEHHRAPYNNNYCIVSGAWNNVLDESKVFEALEMVFYFQLGVRPRSWSEPNSDWIEETEISNNQA | soluble |
| MSKVNQQDIDKLIELVGGRGNIATVSHCITRLRFVLNDPAIARPKEIEQLRMVKGCFTNAGQFQVVIGTEVGDYYKALLATTGQTSADKEQVKQA | not soluble |
| MIKTAQSVGELTRAIKNELESLFPFVRVKGELSNVKQHSSGHVYLTLKDSEAQIPAVIWKSVRARSPLELRDGLEVIAEGRLEVWPPAGRYQLICTALFETGEGEQRLALERLIAKLAKAGWFDAERKKPIPRIPRRIGMITSPTGAVIRDMSDVFARRFPAAELLLYPVQVQGERAVESIVRALRYFNDPPKPEHKPDVLIVARGGGSSEDLQAFNDEAVAEAIYRSAIPVISAVGHETDLSVADMVADLRAGTPSIAAERAVPDREELLRLIDNLVNRQSILMEGLISGAQLQVDSITSSYAFNRPVQMLGQFEERLALMEKEMKRAIAEKVRDREQQLTAAADRLAMLDINRTLKRGFALVTQDDRYVTSAKSLEADAKIGLTFHDGQREARVTE | not soluble |
| MGSDKIHHHHHHMNFLKKEPFKIFSMIYLLLDTITNRAGTERAVINLANNLHANGHRVSLVSVCTKEGEPSFQVEKGIEVHHLGIRLYGNALARKTVYFKAYRRIKALYKKREPVLLIGTNIFINTILSQISNRGRIFTIGCEHISYDIARPITKRIRGFLYSGLDAVVALTKRDQQSFEAILRGRSKAYVIPNQVSFTTVQRDATTHKQMLAIGRLTYQKGFEFMIEDASRVLRERPDWKLIIVGDGENESMLRKEIASRNMESQIEIHPSTPEIRKYYESSAIYLMTSRFEGLPMVLLEAEAYALPIISYDCPTGPRELIENGRNGFLVPMEAHEDFADKLRLLMDDETLRKKMGQESELMVKSYSPANIYECWKKLFVEIGYMN | not soluble |
| MVTSTRARFGQFVHRRRRLLNLTQDEVTAAGGPSDAAQTRAENGTGPDPSIETLRKLDVALRWAPGSAARTLDGGHPTPLEALDGEDRSPAARPLTLGPSEIPLDLDTIIEILGPHTQITKLSAAHPEVPGLAEAAGELSRVVSKITGAYVTRLLEVNGGPTGPRQPLVEFAFGHLLEEPTTVTDPRELEEARYRRFLYGRGEDLDAATRERFWRRWEDAVKLVATEDPERSGDAEVNA | not soluble |
| MSCPYIDEDKIVGNVEMELKKGGTFDKLRKQAIEHVKDSKLVHRIENEMLVKVDEIIASSANLTQEEIQRKMKDFMNENAKMRNDINRQIRVEFEKEWVHDELDKEIDEKVNKQLENSI | not soluble |
| MMNPLIIKLGGVLLDSEEALERLFSALVNYRESHQRPLVIVHGGGCVVDELMKGLNLPVKKKNGLRVTPADQIDIITGALAGTANKTLLAWAKKHQIAAVGLFLGDGDSVKVTQLDEELGHVGLAQPGSPKLINSLLENGYLPVVSSIGVTDEGQLMNVNADQAATALAATLGADLILLSDVSGILDGKGQRIAEMTAAKAEQLIEQGIITDGMIVKVNAALDAARTLGRPVDIASWRHAEQLPALFNGMPMGTRILA | soluble |
